Here are results for 167 variants from the Human Domainome abundance scans (Beltran et al. 2025).

± gives the uncertainty stated by the source.

B1: Nucleolar transcription factor 1, residues 408 to 469; numbered along this chain, P17480 (parent)
chain: KRPVSAMFIFSEEKRRQLQEERPELSESELTRLLARMWNDLSEKKKAKYKAREAALKAQSER

Variants of B1 are the subject of this series. Nature of the series: abundance fitness (aPCA) (normalised: wild type 0, dead -1); higher = more abundant; growth selection in yeast, the domain comes from the species named. To be noted: Homo sapiens.
Turning to E27T, the abundance fitness was -0.133 ± 0.072.

E27G: the abundance fitness is -0.09 ± 0.067.

Consider E27W, for which the abundance fitness was -0.328 ± 0.11.

For E53I, the abundance fitness was -0.356 ± 0.15.

Regarding E53V, the abundance fitness is -0.078 ± 0.051.

For E53W, the abundance fitness was -0.133 ± 0.074.

In the case of E53Y, the abundance fitness was -0.122 ± 0.091.

Take E53M: the abundance fitness was -0.164 ± 0.07.

Turning to P23A, the abundance fitness was -0.256 ± 0.07.

In the case of P23I, the abundance fitness is -0.187 ± 0.09.

Turning to P23Y, the abundance fitness is -0.402 ± 0.13.

P23H: the abundance fitness is -0.267 ± 0.1.

In the case of P23E, the abundance fitness is -0.357 ± 0.068.

For P23R, the abundance fitness is -0.252 ± 0.057.

P23K: the abundance fitness was -0.174 ± 0.062.

Consider L34T, for which the abundance fitness was -0.096 ± 0.082.

Take L34V: the abundance fitness was -0.026 ± 0.057.

As for L34G, the abundance fitness was -0.566 ± 0.06.

In the case of L34R, the abundance fitness was -0.954 ± 0.06.

As for L34K, the abundance fitness is -1.27 ± 0.21.

Regarding L34N, the abundance fitness is -0.931 ± 0.12.

On to L34A, for which the abundance fitness is -0.192 ± 0.053.

For L34Y, the abundance fitness was -0.833 ± 0.14.

For E61W, the abundance fitness was -0.135 ± 0.071.

Consider E61C, for which the abundance fitness is -0.073 ± 0.13.

Turning to E61G, the abundance fitness was -0.071 ± 0.046.

With E61R, the abundance fitness was -0.236 ± 0.13.

On to E61T, for which the abundance fitness turned out to be 0.003 ± 0.077.

Consider E61S, for which the abundance fitness is -0.045 ± 0.052.

E20W: the abundance fitness was -0.152 ± 0.051.

Take E20A: the abundance fitness was -0.092 ± 0.045.

For E20G, the abundance fitness is -0.064 ± 0.037.

For E20Q, the abundance fitness was -0.016 ± 0.061.

With S60L, the abundance fitness is -0.062 ± 0.05.

On to S60R, for which the abundance fitness is -0.059 ± 0.037.

S60E: the abundance fitness is 0 ± 0.05.

With S60I, the abundance fitness was -0.057 ± 0.11.

Consider S60M, for which the abundance fitness is -0.113 ± 0.049.

For the variant L56Q, the abundance fitness was -0.089 ± 0.084.

L56K: the abundance fitness was -0.082 ± 0.051.

With L56I, the abundance fitness came out at 0.004 ± 0.063.

Consider L56P, for which the abundance fitness was -0.156 ± 0.066.

For the variant L56Y, the abundance fitness was -0.085 ± 0.065.

Consider R62Q, for which the abundance fitness stood at 0.004 ± 0.1.

In the case of R62I, the abundance fitness was -0.055 ± 0.16.

As for R62E, the abundance fitness is 0.027 ± 0.19.

Take L18E: the abundance fitness was -0.664 ± 0.06.

L18N: the abundance fitness was -0.98 ± 0.11.

L18P: the abundance fitness is -1.37 ± 0.14.

Regarding L18S, the abundance fitness was -0.632 ± 0.058.

Regarding L18R, the abundance fitness was -0.965 ± 0.052.

Turning to L18F, the abundance fitness is -0.085 ± 0.13.

L18T: the abundance fitness is -0.092 ± 0.074.

Turning to K48W, the abundance fitness is -0.094 ± 0.061.

For K48I, the abundance fitness was -0.264 ± 0.36.

On to K48V, for which the abundance fitness is -0.101 ± 0.055.

In the case of K48H, the abundance fitness was -0.213 ± 0.35.

On to S42G, for which the abundance fitness was -0.082 ± 0.05.

With S42Q, the abundance fitness is -0.288 ± 0.068.

Consider S42T, for which the abundance fitness was -0.078 ± 0.049.

Turning to S42A, the abundance fitness is -0.115 ± 0.058.

For S42N, the abundance fitness is -0.147 ± 0.13.

Take S42M: the abundance fitness is -0.654 ± 0.069.

On to S42W, for which the abundance fitness is -1.06 ± 0.091.

On to E13P, for which the abundance fitness is -0.663 ± 0.074.

Turning to E13I, the abundance fitness was -0.177 ± 0.16.

In the case of E13C, the abundance fitness was -0.175 ± 0.067.

Take E13V: the abundance fitness is -0.187 ± 0.079.

Turning to E13Y, the abundance fitness is -0.29 ± 0.23.

For K57P, the abundance fitness is -0.087 ± 0.061.

With K57N, the abundance fitness is -0.068 ± 0.11.

Regarding K57R, the abundance fitness is -0.079 ± 0.049.

On to K57Q, for which the abundance fitness is -0.16 ± 0.1.

Take R32L: the abundance fitness was -0.018 ± 0.044.

On to R32M, for which the abundance fitness was -0.105 ± 0.083.

Regarding R32A, the abundance fitness is -0.033 ± 0.048.

For M37Q, the abundance fitness was -0.237 ± 0.088.

For M37S, the abundance fitness is -0.225 ± 0.058.

Consider M37K, for which the abundance fitness is -0.296 ± 0.087.

Turning to M37C, the abundance fitness was -0.193 ± 0.1.

With S11W, the abundance fitness is -0.08 ± 0.056.

Turning to S11M, the abundance fitness was determined as 0.093 ± 0.06.

Turning to S11H, the abundance fitness is -0.146 ± 0.18.

Turning to S11L, the abundance fitness is -0.049 ± 0.049.

Take S11C: the abundance fitness is -0.102 ± 0.12.

As to S11P, the abundance fitness is -1.16 ± 0.11.

Regarding Q19I, the abundance fitness amounted to 0.009 ± 0.091.

In the case of Q19G, the abundance fitness was -0.076 ± 0.039.

Consider Q19V, for which the abundance fitness is -0.025 ± 0.047.

Regarding Q19Y, the abundance fitness was -0.095 ± 0.082.

Take Q19S: the abundance fitness is -0.02 ± 0.041.

Consider S5K, for which the abundance fitness is -0.041 ± 0.085.

For the variant S5E, the abundance fitness was 0.042 ± 0.094.

On to S5W, for which the abundance fitness was -0.455 ± 0.052.

S5V: the abundance fitness is -0.187 ± 0.064.

S5I: the abundance fitness is -0.178 ± 0.096.

On to K1M, for which the abundance fitness stood at 0.004 ± 0.11.

On to K1W, for which the abundance fitness is -0.205 ± 0.072.

Consider K1V, for which the abundance fitness is -0.136 ± 0.11.

As for K1G, the abundance fitness is -0.08 ± 0.076.

Consider K1T, for which the abundance fitness was -0.06 ± 0.096.

With K1E, the abundance fitness was -0.139 ± 0.075.

Take K1Y: the abundance fitness is -0.105 ± 0.32.

For K1D, the abundance fitness is 0.006 ± 0.091.

Take K1C: the abundance fitness was -0.367 ± 0.18.

In the case of M7K, the abundance fitness was -0.015 ± 0.052.

As for M7Y, the abundance fitness is -0.012 ± 0.086.

As for M7H, the abundance fitness was -0.028 ± 0.16.

In the case of M7F, the abundance fitness was -0.015 ± 0.2.

In the case of M7W, the abundance fitness was -0.178 ± 0.046.

Consider M7V, for which the abundance fitness is -0.058 ± 0.06.

For the variant M7C, the abundance fitness was -0.066 ± 0.083.

As to M7R, the abundance fitness was -0.043 ± 0.047.

As for K45E, the abundance fitness was determined as 0.067 ± 0.055.

Regarding K45M, the abundance fitness was -0.039 ± 0.049.

For K45G, the abundance fitness was -0.009 ± 0.044.

Turning to K45P, the abundance fitness is -0.435 ± 0.069.

For the variant A55G, the abundance fitness was -0.046 ± 0.072.

Turning to A55T, the abundance fitness was -0.062 ± 0.063.

Turning to A55I, the abundance fitness was -0.126 ± 0.1.

For A55P, the abundance fitness was -0.132 ± 0.093.

As to S28Y, the abundance fitness is -0.085 ± 0.057.

Take S28N: the abundance fitness is -0.053 ± 0.05.

In the case of S28R, the abundance fitness is -0.113 ± 0.065.

Consider S28G, for which the abundance fitness is -0.047 ± 0.06.

As to S28T, the abundance fitness was -0.076 ± 0.056.

Take F8V: the abundance fitness is -0.027 ± 0.055.

As to F8G, the abundance fitness came out at 0.029 ± 0.045.

As for F8Y, the abundance fitness is -0.001 ± 0.14.

As to W38R, the abundance fitness was -1.01 ± 0.048.

Turning to W38H, the abundance fitness was -0.803 ± 0.11.

Take W38A: the abundance fitness was -0.892 ± 0.065.

Turning to W38I, the abundance fitness is -0.867 ± 0.14.

On to W38P, for which the abundance fitness was -0.737 ± 0.084.

On to A35F, for which the abundance fitness was -0.176 ± 0.096.

In the case of A35R, the abundance fitness is -0.018 ± 0.049.

Turning to A35V, the abundance fitness was -0.057 ± 0.047.

Consider A35M, for which the abundance fitness is -0.102 ± 0.063.

With A35Y, the abundance fitness is -0.387 ± 0.1.

As to A35H, the abundance fitness was -0.341 ± 0.076.

Take A35I: the abundance fitness is -0.015 ± 0.11.

Turning to N39D, the abundance fitness is -0.021 ± 0.28.

For the variant N39Q, the abundance fitness is -0.015 ± 0.058.

As to N39E, the abundance fitness is -0.037 ± 0.057.

N39C: the abundance fitness was -0.138 ± 0.11.

For A51M, the abundance fitness was -0.059 ± 0.074.

Consider A51I, for which the abundance fitness was -0.148 ± 0.075.

On to A51P, for which the abundance fitness was -0.374 ± 0.094.

For A51F, the abundance fitness was -0.079 ± 0.07.

A51W: the abundance fitness was -0.219 ± 0.082.

Consider A51Q, for which the abundance fitness was -0.053 ± 0.082.

Take K50R: the abundance fitness was -0.032 ± 0.055.

Regarding K50P, the abundance fitness is -0.65 ± 0.077.

With K50E, the abundance fitness is -0.017 ± 0.08.

Consider E12N, for which the abundance fitness was -0.048 ± 0.1.

For the variant E12S, the abundance fitness is -0.028 ± 0.049.

On to E12Q, for which the abundance fitness was -0.13 ± 0.065.

In the case of E12Y, the abundance fitness is -0.251 ± 0.087.

With E12P, the abundance fitness is -0.738 ± 0.04.

As for E12H, the abundance fitness is -0.169 ± 0.09.

As to E12M, the abundance fitness was -0.089 ± 0.072.

For L25Y, the abundance fitness was -0.173 ± 0.16.

L25D: the abundance fitness is -0.633 ± 0.1.

As to L25N, the abundance fitness was -0.646 ± 0.13.

Take Q59I: the abundance fitness is -0.008 ± 0.065.

For Q59P, the abundance fitness was -0.056 ± 0.075.

As for Q59D, the abundance fitness worked out at 0 ± 0.091.
